Test results taken from patent publication US20100254979A1 (CISTHERA, published 2010).

T1: mouse PAI-1 (mouse, UniProt P22777 23-402, limits assumed, n-terminal biotin label in the P-ELISA)
T1 construct: also called murine PAI-1
T1 sequence (looked up): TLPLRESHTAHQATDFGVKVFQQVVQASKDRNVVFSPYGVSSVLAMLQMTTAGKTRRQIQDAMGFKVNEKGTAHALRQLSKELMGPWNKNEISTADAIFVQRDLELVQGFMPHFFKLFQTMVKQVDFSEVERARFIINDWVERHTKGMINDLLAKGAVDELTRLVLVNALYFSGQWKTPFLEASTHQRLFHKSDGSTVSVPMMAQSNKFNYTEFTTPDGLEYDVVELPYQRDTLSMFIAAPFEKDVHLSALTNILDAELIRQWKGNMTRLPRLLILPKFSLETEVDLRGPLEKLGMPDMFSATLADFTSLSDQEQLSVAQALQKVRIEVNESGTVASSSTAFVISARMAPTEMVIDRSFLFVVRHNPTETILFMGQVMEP

T2: rat PAI-1 (rat, UniProt P20961 24-402, n-terminal biotin label in the P-ELISA)
T2 sequence (looked up): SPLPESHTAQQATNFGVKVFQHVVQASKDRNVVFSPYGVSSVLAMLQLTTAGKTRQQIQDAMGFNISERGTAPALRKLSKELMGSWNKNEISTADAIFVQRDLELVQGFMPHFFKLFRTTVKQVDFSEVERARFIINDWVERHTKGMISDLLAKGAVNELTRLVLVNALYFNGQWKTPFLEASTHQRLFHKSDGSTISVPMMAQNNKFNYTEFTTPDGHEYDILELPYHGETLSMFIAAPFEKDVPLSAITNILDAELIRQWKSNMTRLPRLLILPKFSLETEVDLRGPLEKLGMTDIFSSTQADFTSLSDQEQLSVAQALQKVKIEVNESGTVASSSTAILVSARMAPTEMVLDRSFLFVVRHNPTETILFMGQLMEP


What was measured:
mouse PAI-1 = target: T1, mouse PAI-1; test: P-ELISA
[1] = target: PAI-1 (antigen of Example 11, species not stated) (Homo sapiens (Human)) (UniProt P05121); test: biosensor kinetics, mAb captured on anti-human IgG surface at 5 densities, 25 C, global 1:1 fit
[2] = target: human PAI-1 (plasminogen activator inhibitor-1) (human, UniProt P05121 24-402, n-terminal biotin label in the P-ELISA); test: cell-based or functional assay
Chain of human PAI-1 (plasminogen activator inhibitor-1) (P05121 24-402 limits assumed): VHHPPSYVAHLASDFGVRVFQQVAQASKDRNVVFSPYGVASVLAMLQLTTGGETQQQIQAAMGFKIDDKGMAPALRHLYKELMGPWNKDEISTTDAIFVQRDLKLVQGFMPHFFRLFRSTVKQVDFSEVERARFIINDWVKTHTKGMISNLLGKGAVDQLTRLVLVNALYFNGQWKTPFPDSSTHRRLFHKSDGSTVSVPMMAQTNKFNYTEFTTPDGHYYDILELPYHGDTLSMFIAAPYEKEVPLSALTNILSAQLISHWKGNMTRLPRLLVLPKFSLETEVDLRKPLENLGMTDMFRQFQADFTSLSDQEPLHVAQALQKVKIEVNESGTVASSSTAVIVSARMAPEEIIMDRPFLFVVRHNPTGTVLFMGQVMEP

rat PAI-1 = target: T2, rat PAI-1; test: P-ELISA: biotinylated PAI-1 (panel title: Rat PAI-1) on Neutravidin-coated plate, HRP-conjugated secondary antibody, O.D. 450
Method: All reagents are brought to room temperature (18-23° C.) and dilutions are made in Wash Buffer (1× TBS, 0.1% BSA, 0.05% Tween). Briefly, protocol steps are as follows: [0952] Add 100 μL of Neutravidin™ Pierce #31000 (0.5 μg/ml in TBS) to 96-well Immulon-4 plates. [0953] Incubate 1 hour at room temperature (RT). [0954] Wash wells 3 times with 200 μl Wash Buffer. [0955] Add 50 μL of biotinylated biomolecule (0.06 nM) Incubate 1 hour at RT. [0956] Wash plate 3 times in Wash Buffer. [0957] Add 100 μL of 1° Ab Incubate 30 min RT [0958] Wash plate 3 times in Wash Buffer. [0959] Add 50 μL of 2° Ab-HRP (1:10,000) Incubate 30 min RT [0960] Wash plate 4 times in Wash Buffer. [0961] Add 100 μl TMB Reagent (substrate). Incubate at room temperature. [0962] Add 100 μL of 2 M Sulfuric Acid to stop development of the substrate. [0963] Plates were read using a 450 nm filter with a 615-620 nm filter as the reference.
Binding of CT140 to rat, mouse, rabbit and human PAI-1 was determined by P-ELISA (see FIG. 12). The relative affinity of CT140 is human=rabbit>mouse>rat (FIG. 12A, FIG. 12B, FIG. 12C and FIG. 12D, respectively).

[3] = target: PAI-1 (antigen of Example 11, species not stated) (Homo sapiens (Human)) (UniProt P05121); test: biosensor kinetics, 25 C, global 1:1 fit
[4] = target: PAI-1 (immobilised antigen of the P-ELISA of FIG. 13, species not stated); test: P-ELISA on immobilised biotinylated PAI-1 (species not stated), A450; antibody spiked into plasma with EDTA
Chain of PAI-1 (immobilised antigen of the P-ELISA of FIG. 13, species not stated) (P05121 24-402): as the sequence (P05121 24-402 limits assumed) above

[5] = target: PAI-1 (immobilised antigen of the P-ELISA of FIG. 13, species not stated); test: P-ELISA on immobilised biotinylated PAI-1 (species not stated), A450; antibody without plasma, with or without EDTA

| fold greater affinity relative to the parent mouse anti-PAI-1 (mouse PAI-1) | Kd [1] | koff [1] | kon [1] | EC50 (read off the curve) [2] | binding result (rat PAI-1) | Kd [3] | koff [3] | kon [3] | EC50 (read off the curve) [4] | EC50 (read off the curve) [5] | Binder |
| --- | --- | --- | --- | --- | --- | --- | --- | --- | --- | --- | --- |
| > 10 fold | 0.015 nM | 8e-06 s⁻¹ | 530000 M⁻¹ s⁻¹ | ~10 µg/mL | binds |  |  |  |  |  | CT140 (humanized 33B8 anti-PAI-1 antibody, IgG4 with IgG1 hinge) (antibody, V domains shown, The IgG4 hinge was replaced by that of IgG1; also called hP-1; humanized mAb CT140) VH: QVQLVQSGAEVKKPGASVKVSCKASGYTFTNYGMNWVRQAPGQGLEWMGWINTYTGEPTYTDDFKGRFTMTLDTSISTAYMELSRLRSDDTAVYYCAKDVSGFVFDYWGQGTLVTVSS VL: DIVMTQSPDSLAVSLGERATINCKSSQSLLNIIKQKNCLAWYQQKPGQPPKLLIYWASTRESGVPDRFSGSGSGTDFTLTISSLQAEDVAVYYCQQYYSYPYTFGQGTKLEIKR |
|  |  |  |  |  |  | 8.01 nM | 0.00314 s⁻¹ | 393000 M⁻¹ s⁻¹ | 0.4 µg/mL | 0.1 µg/mL | murine monoclonal antibody 33B8 (MA-33B8) (antibody, V domains shown) VH: QIQLVQSGPELKKPGKTVTISCKASGYTFTNYGMNWVKQAPGKGLKWMGWINTYTGEPTYTDDFKGRFAFSLDTSASTAYLQISNLKNEDTATYFCAKDVSGFVFDYWGQGTTVTVSS VL: DIVMTQSPSSLAVSVGEKVTMSCKSSQSLLNIIKQKNCLAWYQQKPGQSPKLLIYWASTRESGVPDRFTGSGSGTDFTLTISSVKAEDLAVYYCQQYYSYPYTFGGGTKLEIK |
